Data reported in patent publication US20260274984A1 (NATIONAL RESEARCH COUNCIL OF CANADA, published 2026).

Tests used:
[1] = molecular target: T1, recombinant mouse mesothelin extracellular domain (mMSLN-ECD) (mouse, UniProt Q61468 298-600, limits assumed); assay: SPR, VHH over immobilized mouse MSLN-ECD
T1 construct: extracellular domain; also called mouse MSLN; mouse MSLN-ECD
T1 sequence (looked up): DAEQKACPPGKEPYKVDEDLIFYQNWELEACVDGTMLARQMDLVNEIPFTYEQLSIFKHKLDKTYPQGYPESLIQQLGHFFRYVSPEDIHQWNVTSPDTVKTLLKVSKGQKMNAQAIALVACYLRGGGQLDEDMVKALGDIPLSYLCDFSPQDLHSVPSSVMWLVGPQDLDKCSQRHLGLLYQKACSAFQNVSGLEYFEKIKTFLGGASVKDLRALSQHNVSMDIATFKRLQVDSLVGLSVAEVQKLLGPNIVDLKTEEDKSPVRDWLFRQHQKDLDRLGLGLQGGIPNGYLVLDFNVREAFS
Description: For surface Plasmon resonance, as mentioned above selected VHHs were passed though size exclusion columns, Superdex 75 (GE Healthcare), respectively, in 10 mM HEPES, pH 7.4, containing 150 mM NaCl, 3 mM EDTA, and monomeric sdAb fractions were collected and protein concentrations were determined by measuring absorbance at 280 nm (A280). SPR analysis were performed with Biacore T200 instrument (GE Healthcare). All measurements were carried out at 25° C. in 10 mM HEPES, pH 7.4, containing 150 mM NaCl, 3 mM EDTA and 0.005% surfactant P20 (GE Healthcare). Approximately 500 RUs of the recombinant monomeric human and mouse MSLN-ECD (obtained after SEC purification of the MSLN-ECD) were captured on SA sensor chip (GE Healthcare) at a flow rate of 5 uL/min. Various concentration of the monomeric VHHs (20-500 nM) were injected over MSLN-ECD surface, respectively using an SA surface as a reference at a flow rate of 40 μL/min. Surfaces were generated by washing with running buffer. Data were analysed with BIAevaluation 4.1 software.
The monomeric fraction of VHHs obtained by SEC purification were used for SPR experiment where the human or mouse MSLN-ECD was immobilized onto the […] and various VHH concentration (20-500 nM) were passed over the sensor chip. […] All of the data collected fit a 1:1 binding model (Table 3A).

[2] = molecular target: recombinant human mesothelin extracellular domain, isoform 1 (hMSLN-ECD, 10xHis) (human) (UniProt Q13421); assay: SPR (Biacore T200), VHH over immobilized hMSLN-ECD, 1:1 model
[3] = molecular target: human mesothelin on MSLN-positive cells (NCI-H292, SKOV3) (human) (UniProt Q13421); assay: cell-based or functional assay
[4] = molecular target: T2, human mesothelin on MSLN-positive cells (NCI-H292, SKOV3) (human, UniProt Q13421 296-598); assay: Mirrorball microplate cytometry on adherent NCI-H292 (MSLN-positive) cells, 2 h; biotinylated VHH detected with streptavidin-PE; MMFI
T2 construct: whole, on cells; Endogenous expression on tumour cell lines; H1581 and Raji cells served as MSLN-negative controls; also called cell surface MSLN
Description: Cells (5000 cells well-1) were seeded in Nunc® MicroWell 96-well optical bottom plates (Sigma-Aldrich) and incubated at 37° C. in a humidified atmosphere containing 5% CO₂ for 24-48 h. Each anti-MSLN biotinylated VHH was serially diluted in Live Cell Imaging Solution (LCIS; Thermo Fisher) and 50 μL of each Ab variant was added to the assay plate and incubated at 4° C. for 2 h. As positive control, anti-MF-T (human IgG1) monoclonal antibody (NRC-HHT-Montreal) was used. The wells were washed with LCIS, then Biotin-Streptavidin, R-Phycoerythrin Conjugate (SAPE) or donkey anti-Human Alexa Fluor (AF488) (at 3 ug/ml final concentration) was added to the wells and incubated at 4° C. for 1 h. The secondary Ab was removed, the cells were washed with LCIS then 50 μL of DRAQ5 nuclear stain (1 μM prepared in LCIS; Cell Signaling, Danvers, MA, USA) was added to wells and incubated for 10 min at 4° C. […] Data were analyzed using Cellista software (TTP Labtech) and GraphPad Prism 6 software. […]
Cell binding activities of the selected VHHs were examined by Mirrorball where negative-(NCI-H1581) and positive (NCI-H292)-MSLN cells were cultured in 96 well plate and binding of the biotinylated VHHs was detected by Streptaviding-PE conjugate. As positive control, a human IgG1 mAb MF-T was used which was detected by donkey anti-human […].

[5] = molecular target: recombinant human mesothelin extracellular domain, isoform 1 (hMSLN-ECD, 10xHis) (human) (UniProt Q13421); assay: SPR (Biacore T200), VHH over immobilized hMSLN-ECD; no rate constants printed

T2 sequence (Q13421 other isoform, or with tags, fused parts or gaps limits assumed): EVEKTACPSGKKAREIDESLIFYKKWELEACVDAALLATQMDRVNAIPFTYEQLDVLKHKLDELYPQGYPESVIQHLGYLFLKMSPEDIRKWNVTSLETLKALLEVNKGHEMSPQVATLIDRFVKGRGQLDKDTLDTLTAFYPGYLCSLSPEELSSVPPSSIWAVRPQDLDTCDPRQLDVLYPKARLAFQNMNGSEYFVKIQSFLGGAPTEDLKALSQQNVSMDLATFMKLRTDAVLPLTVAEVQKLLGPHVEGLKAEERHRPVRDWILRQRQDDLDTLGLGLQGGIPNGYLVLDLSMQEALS
Sequence of human mesothelin on MSLN-positive cells (NCI-H292, SKOV3) (human) (Q13421 other isoform, or with tags, fused parts or gaps limits assumed): as above

B1: hMSLN-TP7-5 (VHH)
VHH: QVKLEESGGGLVQAGGSLRISCAASGRSISDYFMGWFRQTPGKEREFVAAISWSGGTAYYADSVKGRFTISRDNAKNTGYLQMNSLKPEDTAVYFCAARLSYDSRTSLQNSYDYNYWGQGTQVTVSS
notes: Llama VHH expressed in E. coli; biotinylated form used in the Mirrorball assay; also called VHH # 2
Does B1 bind [1]?
Result: no binding (tested: 20-500 nM)

What about the Kd [2] of the same binder?
The Kd was 57.2 nM.

And the EC50 of CD69 staining of Jurkat cells in co-culture with MSLN+ H292 cells [3]?
Its EC50 of CD69 staining of Jurkat cells in co-culture with MSLN+ H292 cells is 1 nM.

B2: hMSLN-TP7-4 (VHH)
VHH: QVQLVGSGGGLVRAGGSLRLSCAGSGLTFGSYAMAWYRQAPGKQRELVASISSRGVTNYADSVEGRFTISRDNAKSTVYLQMNDLKPEDAAVYYCNAKGPFMLREYDYWGQGTQVTVSS
notes: Llama VHH expressed in E. coli BL21(DE3), IMAC purified, monomeric SEC fraction used for SPR; biotinylated form used in the Mirrorball assay; also called VHH # 1
For B2, which Kd [1] is on record?
Its Kd is 300 nM.

What about the Kd [2] of the same binder?
Its Kd is 0.225 nM.

And the koff [2]?
The koff was 0.000388 s⁻¹.

What about the kon [2] of the same binder?
The kon was 1.72e+06 M⁻¹ s⁻¹.

And the “EC50 (read off the curve)” value [4]?
The value was ~1 nM.

B3: hMSLN-TP7-18 (VHH)
VHH: EVQLVESGGRLVQAGGSLRLSCVASGRAFKWWTMGWFRQAPGKEREFVASISWSDGSTTYGDSVKGRFAISRDNNKNTVYLQMNSLTPEDTAVYYCARYGKDLSGRHSKNVQDYDYWGQGTQVTVSS
notes: Llama VHH expressed in E. coli; also called VHH # 4
Which results are given for B3?
binding result [1]: no binding (tested: 20-500 nM); koff [2]: 0.0138 s⁻¹

B4: hMSLN-TP7-56 (VHH)
VHH: QVQLVESGGGLVQAGGSLRISCVASGRDFSSHFMGWSRQAPGKEREFVAAISWSGGTTYYADSVKGRFAISRDNDKTTVYLQMNSLKPEDSAVYYCAARRTYDSRTSLRNSYDYPYWGQGTQVTVSS
modifications: C-terminal His tag and AviTag (biotinylated in the Mirrorball assay) from vector pMRO; letters not given, left off
notes: Llama VHH expressed in E. coli; biotinylated form used in the Mirrorball assay; also called VHH # 7
Does B4 bind [1]?
Result: no binding (tested: 20-500 nM)

What about the Kd [2] of the same binder?
Its Kd is 26.5 nM.

What about the koff [2] of the same binder?
Its koff is 0.0201 s⁻¹.

What about the kon [2] of the same binder?
The kon was 757000 M⁻¹ s⁻¹.

B5: hMSLN-bioTP7-7 (VHH)
VHH: QVQLVESGGGLVQAGGSLRLSCAASGRTVSTYNMAWFRQAPGKEREIVAVINWTGGSTYYAESVKGRFTISRDNPKNTVYLQMNSLKPEDTAVYYCAATRTSWTENTYWGQGTQVTVSS
modifications: C-terminal His tag and AviTag from vector pMRO; letters not given, left off
notes: Llama VHH expressed in E. coli
Which results are given for B5?
Kd [1]: 218 nM; Kd [2]: 0.0924 nM; koff [2]: 0.000351 s⁻¹; kon [2]: 3.8e+06 M⁻¹ s⁻¹

B6: hMSLN-TP7-9 (VHH)
VHH: DVQLVDSGGGLVQAGGSLRLSCAASGRTVSTYNMAWFRQAPGKEREIVAVINWTGGSTYYAESVKGRFTISGDNPKNTVYLQMNSLKPEDTAVYYCAATRASWTENTYWGQGTQVTVSS
notes: Llama VHH expressed in E. coli; biotinylated form used in the Mirrorball assay; also called VHH # 3
What does the source list for B6?
binding result [1]: no binding (tested: 20-500 nM); Kd [2]: 1.34 nM; koff [2]: 0.00238 s⁻¹; kon [2]: 1.78e+06 M⁻¹ s⁻¹; EC50 (read off the curve) [4]: ~3 nM

B7: hMSLN-TP7-38A (VHH)
VHH: QVKLEESGGGLVQPGGSLRLSCAASGRTVSAYNMAWFRQAPGKEREIVAVINWTGGGTYYAESVKGRFTISRDNPKNTVYLQMNSLKPEDTAVYYCAATRTSWTENTYWGQGTQVTVSS
notes: Llama VHH expressed in E. coli; also called VHH # 6
Does B7 bind [1]?
Result: no binding (tested: 20-500 nM)

B8: hMSLN-biomTP7-41 (VHH)
VHH: QVQLVESGGGLVQPGGSLRLSCTASGIVRASGMAWYRQAPGKQRELVASITTGGETTWYADSVKGRFTISIDNAKMMLYLQMNALKPEDTAVYLCNQRSYWGQGTQVTVSS
modifications: C-terminal His tag and AviTag from vector pMRO; letters not given, left off
notes: Llama VHH expressed in E. coli; also called VHH # 9
Which results are given for B8?
binding result [1]: no binding (tested: 20-500 nM); Kd [5]: 214 nM

B9: hMSLN-bioTP7-48 (VHH)
VHH: QVKLEESGGGLVQPGGSLRLSCTASGSIWSASGLTWYRQRPGNERELVASITTGGETTWYADSVKGRFTISISRDNGKMITYLQMNSLKPEDTAVYLCNSRSYWGQGTQVTVSS
notes: Llama VHH expressed in E. coli; also called VHH # 10
What does the source list for B9?
binding result [1]: no binding (tested: 20-500 nM); Kd [5]: 276 nM

B10: hMSLN-bioTP7-53 (VHH)
VHH: QVQLVESGGGLVQPGGSLRLACAASGGIGSLSNVRWYRQGPGKEREYVAGITGQSTTYYADSVKGRFTISRDNVKNTVDLQMNSLKPEDTAVYICNVATLRNEYWGQGTQVTVSS
notes: Llama VHH expressed in E. coli; also called VHH # 11
Does B10 bind [1]?
Result: no binding (tested: 20-500 nM)

And the Kd [2]?
Its Kd is 0.571 nM.

What about the koff [2] of the same binder?
Its koff is 0.000433 s⁻¹.

What about the kon [2] of the same binder?
Its kon is 758000 M⁻¹ s⁻¹.

B11: hMSLN-TP7-75A (VHH)
VHH: QVQLVESGGGLVQAGGSLSLSCAASGRTFSASAMAWFRQAPGTDREFVAAVAWGGRDTHYADSVKGRFTISMNNAKNTVVLQMNSLKPEDTAVYYCAAGQRGWSHSTSRDYDYWGQGTQVTVSS
notes: Llama VHH expressed in E. coli; also called VHH # 12
Does B11 bind [1]?
Result: no binding (tested: 20-500 nM)

And the Kd [2]?
Its Kd is 52 nM.

And the koff [2]?
Its koff is 0.0305 s⁻¹.

And the kon [2]?
Its kon is 587000 M⁻¹ s⁻¹.

B12: hMSLN-mTP7-82 (VHH)
VHH: QVQLVESGGGLVQAGGSLRLSCAASGSIRSASGMHWYRQAPGKERELVASITTSGETTWYRDSVKGRFTISINNAKMMLYLQMNSLKFEDTAVYYCNLRSYWGQGTQVTVSS
notes: as for B5
How did the Kd [1] turn out when B12 was run?
The Kd was 145 nM.

And the Kd [2]?
Its Kd is 0.0579 nM.

What about the koff [2] of the same binder?
Its koff is 0.000176 s⁻¹.

And the kon [2]?
The kon was 3.04e+06 M⁻¹ s⁻¹.

B13: hMSLN-TP7-35 (VHH)
VHH: QVQLVDSGGGLVQPGGSLRLSCTTSASTFRFFAMHWYRQAPGKERELVAVISRDGDAEYVDSVKGRFTISRDNAKNAVYLQMNSLKPEDTAVYYCHTRILSDHYWGQGTQVTVSS
modifications: C-terminal His tag and AviTag from vector pMRO; letters not given, left off
notes: Llama VHH expressed in E. coli; also called VHH # 5
Does B13 bind [1]?
Result: no binding (tested: 20-500 nM)
